Measurements taken from US7943146B2, “Immunizing compositions comprising HIV-1 proviral constructs with an inactive p6 gag TSG101 UEV binding domain capable of producing budding-defective viral particles that remain tethered to the cell surface” (priority 2001, dated 2011).
Residues, ends and D or L forms follow the SMILES beside them. No end group written: not given here.

Tests used:
[1] = tested on: HIV; test: microbe, parasite or virus in culture; format: cell-based, HIV-1; conditions: human PBMCs
Method: Fresh human blood was obtained commercially from Interstate Blood Bank, Inc. (Memphis, Tenn.). The lymphotropic clinical isolate HIV-1ROJO was obtained from a pediatric patient attending the AIDS Clinic at the University of Alabama at Birmingham. The laboratory-adapted HIV-1IIIB strain was propagated and tittered in fresh human PBMCs; pre-titered aliquots of HIV-1ROJO and Hiv-1IIIB were removed from the freezer (−80° C.) and thawed rapidly to room temperature in a biological safety cabinet immediately before use. Phytohemagglutinin (PHA-P) was obtained from Sigma (St. Louis, Mo.) and recombinant IL-2 was obtained from Amgen (San Francisco, Calif.).
Fresh human PBMCs were isolated from screened donors, seronegative for HIV and HBV. Leukophoresed blood was diluted 1:1 with Dulbecco's phosphate buffered saline (PBS), layered over 14 mL of Ficoll-Hypaque density gradient in a 50 mL centrifuge tube and then centrifuged for 30 minutes at 600×g. Banded PBMCs were aspirated from the resulting interface and subsequently washed 2× with PBS by low speed centrifugation. After the final wash, cells were enumerated by trypan blue exclusion and re-suspended at 1×10^7 cells/mL in RPMI 1640 supplemented with 15% Fetal Bovine Serum (FBS), 2 mM L-glutamine, 4 μg/mL PHA-P. The cells were allowed to incubate for 48-72 hours at 37° C. After incubation, PBMCs were centrifuged and reset in RPMI 1640 with 15% FBS, 2 mM L-glutamine, 100 U/ml penicillin, 100 μg/mL streptomycin, 10 μg/mL gentamycin, and 20 U/mL recombinant human IL-2. PBMCs were maintained in this medium at a concentration of 1-2×10^6 cells/mL with biweekly medium changes until used in the assay protocol.
For the standard PBMC assay, PHA-P stimulated cells from at least two normal donors were pooled, diluted in fresh medium to a final concentration of 1×10^6 cells/mL, and plated in the interior wells of 96 well round bottom microplate at 50 μL/well (5×10^4 cells/well). Test drug dilutions were prepared at a 2× concentration in microtiter tubes and […] of each concentration was placed in appropriate wells in a standard format. […] Wells with cells and virus alone were used for virus control. Separate plates were prepared identically without virus for drug cytotoxicity studies using an XTT assay system. The PBMC cultures were maintained for seven days following infection, at which time cell-free supernate samples were collected and assayed for reverse transcriptase activity as described below.
A microtiter based reverse transcriptase (RT) reaction was utilized. See Buckheit et al., AIDS Research and Human Retroviruses 7:295-302 (1991). Tritiated thymidine triphosphate (NEN) (TTP) was resuspended in distilled H2O at 5 Ci/ml. Poly rA and oligo dT were prepared as a stock solution which was kept at −20° C. The RT reaction buffer was prepared fresh on a daily basis and consists of 125 μl 1M EGTA, 125 μl dH2O, 110 μl 10% SDS, 50 μl 1M Tris (pH 7.4), 50 μl 1M DTT, and 40 μl 1M MgCL2. These three solutions were mixed together in a ratio of 2 parts TTP, 1 part poly rA:oligo dT, and 1 part reaction buffer. Ten microliters of this reactions mixture was placed at a round bottom microtiter plate and 15 μl of virus containing supernatant was added and mixed. […] Opti-Fluor-O (Packard) was added to each sample and incorporated radioactivity was quantified utilizing a Wallac 1450 MicroBeta Plus liquid scintillation counter.

[2] = target: T1, Tsg101 (Homo sapiens, UniProt Q99816); test: Yeast two-hybrid filter lift assay for β-Gal activity, Tsg101 with p6gag constructs; format: cell-based; set-up: expressed in transfected cells; host or cells: Saccharomyces cerevisiae strain Y189; key to Interactions Between Tsg101 and p6gag (β-Gal activity): +: Positive β-Gal activity indicates that the p6gag wild type or mutant protein interacts with Tsg101; conditions: for Interactions Between Tsg101 and p6gag (β-Gal activity): yeast strain Y189, activation domain-Tsg101 plus binding domain-p6gag construct, X-Gal filter lift
T1 sequence (Q99816 1-390): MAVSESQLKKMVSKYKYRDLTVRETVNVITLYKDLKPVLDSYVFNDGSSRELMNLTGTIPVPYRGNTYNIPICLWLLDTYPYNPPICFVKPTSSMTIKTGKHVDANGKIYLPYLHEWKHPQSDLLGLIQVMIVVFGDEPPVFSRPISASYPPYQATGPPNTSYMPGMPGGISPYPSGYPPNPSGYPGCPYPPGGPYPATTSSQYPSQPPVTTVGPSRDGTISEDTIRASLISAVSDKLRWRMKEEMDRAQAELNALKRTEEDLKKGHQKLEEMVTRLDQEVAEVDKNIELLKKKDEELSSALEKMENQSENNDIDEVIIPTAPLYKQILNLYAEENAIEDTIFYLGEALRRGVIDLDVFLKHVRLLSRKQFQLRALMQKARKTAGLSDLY
Source text: Yeast two-hybrid assays were utilized to determine the effect of amino acid substitution mutations in the PTAP (SEQ ID NO:1) motif of HIV p6gag on the interaction between Tsg101 and p6gag. To prepare a yeast two-hybrid activation domain-Tsg101 construct, a DNA fragment encompassing the full-length coding sequence for Tsg101 according to GenBank Accession No. U82130 was obtained by PCR from a human fetal brain cDNA library and cloned into the EcoRI/Pst1 sites of the activation domain parent plasmid GADpN2 (LEU2, CEN4, ARS1, ADH1p-SV40NLS-GAL4 (768-881)-MCS (multiple cloning site)-PGKlt, AmpR, ColE1_ori).
To prepare the yeast two-hybrid DNA binding domain-HIV1 p6gag construct, a DNA fragment corresponding to the HIV1 p6 peptide derived from the HIV1.NL43 strain GAG protein was obtained by PCR from the NL43 containing plasmid R9Δapa and was cloned into the EcoRI/Sal1 sites of the binding domain parent plasmid pGBT.Q. The sequence of the amplified insert is shown in SEQ ID NO:34.
The following amino acid substitution mutations were introduced by PCR into the HIV1 p6gag sequence in the yeast two-hybrid binding domain-HIV1 p6gag construct described above. The mutations were verified by DNA sequence analysis.
To test the effect of the mutations, yeast cells of the strain Y189 purchased from Clontech (ura3-52 his3*200 ade2-101 trp1-901 leu2-3,112 met gal4 gal80 URA3::GAL1p-lacZ) were co-transformed with the activation domain-Tsg101 construct and one of the binding domain-mutant p6gag constructs or the binding domain-wild type p6gag construct. Filter lift assays for β-Gal activity were conducted by lifting the transformed yeast colonies with filters, lysing the yeast cells by freezing and thawing, and contacting the lysed cells with X-Gal. […] All binding domain constructs were also tested for self-activation of β-Gal activity.

[3] = target: T1, Tsg101; test: Two-hybrid liquid culture β-galactosidase assay; format: cell-based; set-up: expressed in transfected cells; conditions: full length Tsg101, liquid culture; for β-galactosidase activity (in words): p6 point mutants
Method: The interactions between TSG101 and wild-type p6gag (WT) or the p6gag PTAP (SEQ ID NO:1) mutants were further quantitated by performing liquid culture β-galactosidase assays. Cultures were grown overnight in synthetic media (−Leu, −Trp, +glucose) in 96 well plates, normalized for optical density, and lysed by addition of 6× lysis/substrate solution in 6× Z-buffer (60 mM KCl, 6 mM MgSO4, 360 mM Na2HPO4, 240 mM NaH2PO4, 6 mg/ml CPRG, 0.12 U/ml lyticase, 0.075% NP-40). Cultures were incubated for 2 hr at 37° C., clarified by centrifugation, and the optical absorbance of each supernatant was measured (575 nm). Full length Tsg101 bound wild-type p6 in the two-hybrid liquid culture assay, resulting in high levels of β-galactosidase activity (>300-fold over background). […] Each of these point mutations also arrests HIV-1 budding at a late stage (Huang et al. 1995).

Compound | Comments (anti-HIV activity) [1] | β-galactosidase activity (in words) [3] | further results
CC(C)C[C@H](NC(=O)[C@H](C)NC(=O)[C@@H](NC(=O)[C@@H]1CCCN1C(=O)[C@H](CCC(=O)O)NC(=O)[C@@H]1CCCN1C(=O)[C@H](CCCNC(=N)N)NC(=O)[C@H](CCCNC(=N)N)NC(=O)[C@H](CCCNC(=N)N)NC(=O)[C@H](CCCNC(=N)N)NC(=O)[C@H](CCCNC(=N)N)NC(=O)[C@H](CCCNC(=N)N)NC(=O)[C@H](CCCNC(=N)N)NC(=O)[C@H](CCCNC(=N)N)NC(=O)[C@@H](N)CCCNC(=N)N)[C@@H](C)O)C(=O)N[C@@H](CCC(=O)O)C(=O)N[C@@H](CCC(=O)O)C(=O)O [MPI-PEP2, NH2—(R)9-PEPTALEE-COOH] (H-RRRRRRRRRPEPTALEE-OH) | Inactive |  | 
p6(E6G): HIV1 p6gag binding domain construct with E6G substitution outside the PTAP motif (LQSRPGPTAPPEESFRFGEETTTPSQKQEPIDKELYPLASLRSLFGSDPSSQ; not fully specified) |  |  | Tsg101-p6gag interaction (in words) ([2]; summary of Table II): did not result in the elimination of the Tsg101-p6gag interaction; Interactions Between Tsg101 and p6gag (β-Gal activity) [2]: +
p6(wt): wild type HIV1 p6gag (NL43 strain) as yeast two-hybrid DNA binding domain construct |  |  | β-galactosidase activity ([3]; absorbance 575 nm): > 300 fold over background; Interactions Between Tsg101 and p6gag (β-Gal activity) [2]: +
p6(P10L): HIV1 p6gag binding domain construct with P10L substitution in the PTAP motif (LQSRPEPTALPEESFRFGEETTTPSQKQEPIDKELYPLASLRSLFGSDPSSQ; not fully specified) |  | reduced β-galactosidase activity to background levels | 
C[C@H](NC(=O)[C@@H](NC(=O)[C@@H]1CCCN1C(=O)[C@H](CCC(=O)O)NC(=O)[C@@H]1CCCN1C(=O)[C@H](CCCNC(=N)N)NC(=O)[C@H](CCCNC(=N)N)NC(=O)[C@H](CCCNC(=N)N)NC(=O)[C@H](CCCNC(=N)N)NC(=O)[C@H](CCCNC(=N)N)NC(=O)[C@H](CCCNC(=N)N)NC(=O)[C@H](CCCNC(=N)N)NC(=O)[C@H](CCCNC(=N)N)NC(=O)[C@@H](N)CCCNC(=N)N)[C@@H](C)O)C(=O)N1CCC[C@H]1C(=O)N[C@@H](CCC(=O)O)C(=O)N[C@@H](CCC(=O)O)C(=O)O [MPI-PEP1, NH2—(R)9-PEPTAPEE-COOH] (H-RRRRRRRRRPEPTAPEE-OH) | Active |  | 
p6(P7L): HIV1 p6gag binding domain construct with P7L substitution in the PTAP motif (LQSRPELTAPPEESFRFGEETTTPSQKQEPIDKELYPLASLRSLFGSDPSSQ; not fully specified) |  | reduced β-galactosidase activity to background levels | 
C[C@H](NC(=O)[C@@H](NC(=O)[C@@H]1CCCN1C(=O)[C@H](CCC(=O)O)NC(=O)[C@@H]1CCCN1C(=O)[C@@H](N)CCCNC(=N)N)[C@@H](C)O)C(=O)N1CCC[C@H]1C(N)=O [MPI-PEP3, NH2-RPEPTAP-CO—NH2] (H-RPEPTAP-NH2) | Inactive |  | 
p6(A9R): HIV1 p6gag binding domain construct with A9R substitution in the PTAP motif (LQSRPEPTRPPEESFRFGEETTTPSQKQEPIDKELYPLASLRSLFGSDPSSQ; not fully specified) |  | reduced β-galactosidase activity to background levels | 
